In the supplement of paper PMC10567573:
± gives the standard deviation.

Assay: protein stability index of a GFP-peptide fusion (GPS, HEK-293T) (PSI 1-6); higher = more stable
[1] = treatment: DMSO, c terminus: a fixed tail appended
[2] = treatment: MLN4924 1 uM, 8 h, c terminus: a fixed tail appended
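Further: 24-mer peptide tiles fused after GFP, lentivirally expressed, FACS-sorted into six equal bins by GFP/DsRed ratio, decoded by Illumina sequencing, PSI is the read-weighted mean bin number.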

Sequence | protein stability index [1] | protein stability index [2] | protein stability index (treatment: DMSO, c terminus: native) | protein stability index (treatment: MLN4924 1 uM, 8 h, c terminus: native)
GARQISYSIPEELEKGSFVGNISK [PCDHGA10] | 4.13 ± 0.19 | 4.23 ± 0.17 | – | –
QCANKVLQHMKAVQADQERERQRR [LRRC59] | 3.93 ± 0.4 | 4.17 ± 0.18 | – | –
GGTSSNNSEEEEDDDDEEEEVSEV [ANKRD17] | 5.5 ± 0.23 | 5.54 ± 0.16 | – | –
GPDDSLWDKHACPAYVGPEILSSR [TRIB3] | 3.56 ± 0.25 | 3.54 ± 0.33 | – | –
LGYPYVNSVSSHASSPYISSVQSY [DLX1] | 2.29 ± 0.18 | 2.35 ± 0.27 | – | –
ETETLVTREAVTEILGIEPDREKG [TSN] | 5.5 ± 0.19 | 5.39 ± 0.33 | – | –
LESSYNDEMLSYLPGGTTGLQLPS [TFE3] | 3.94 ± 0.18 | 3.88 ± 0.27 | – | –
TSLKTKFPAEQYYRFHEHWRFVLQ [TSN] | 2.34 ± 0.19 | 2.54 ± 0.16 | – | –
QTYQPPWKALSEFALQSDLDQPAF [ISL2] | 2.96 ± 0.28 | 3.04 ± 0.21 | – | –
IPKPQSTGWFGGGFTSYLGFGDED [MIA2] | 3.14 ± 0.16 | 3.53 ± 0.55 | – | –
GGPFPLPYTAPGGYLDVGSKPMY [TBX6] | – | – | 3.12 ± 0.43 | 3.43 ± 0.2
GSVALGPVCPTVCPPGGIHQVTVN [KRT71] | 3.55 ± 0.34 | 3.52 ± 0.28 | – | –
MLDHHPVAITVEVKQEEDIKPPPP [RAD54B] | 5.08 ± 0.22 | 5.19 ± 0.1 | – | –
HLVPVIEMWADQLTSLKDLYKSLK [CEP70] | 2.47 ± 0.5 | 2.32 ± 0.39 | – | –
MAVRPSLPESGLLSVLQIAQQDLA [FANCE] | 3.29 ± 0.28 | 3.53 ± 0.35 | – | –
FEQLPDDVAISANIADIEEKRGFT [NCF4] | 5.03 ± 0.33 | 5.05 ± 0.21 | – | –
LQDQEKAWGFPENATAPRSPSHSP [ELOA2] | 5.38 ± 0.26 | 5.4 ± 0.26 | – | –
GGIRGRAMALTSSMNWGINLLISL [SLC2A12] | 2.26 ± 0.7 | 2.54 ± 0.42 | – | –
DFIDCVREKGGKVLVHCEAGISRS [DUSP5] | 2.77 ± 0.2 | 2.79 ± 0.41 | – | –
KEKQSRDFQGRILSVDPEEEREEG [RHOBTB1] | 5.25 ± 0.24 | 5.46 ± 0.55 | – | –
ENRLSVFFSVIFMTVGILSNSLAI [PTGFR] | 3.14 ± 0.25 | 3.36 ± 0.17 | – | –
EIFRQRFRQFGYQDSPGPREAVSQ [ZNF24] | 2.7 ± 0.21 | 3.25 ± 0.082 | – | –
VSGSPVTQNHAASALPTGSPKRGT [FBF1] | 5.27 ± 0.16 | 5.22 ± 0.25 | – | –

Sequence | protein stability index [1] | protein stability index [2] | protein stability index (treatment: DMSO, c terminus: native) | protein stability index (treatment: MLN4924 1 uM, 8 h, c terminus: native)
AFFKRTIQGNIEYSCPATNECEIT [ESRRG] | 3.11 ± 0.25 | 3.23 ± 0.27 | – | –
SSDVSTAGTGASRSSHSSDSGGSD [ELF3] | 5.44 ± 0.32 | 5.565 ± 0.049 | – | –
DAEVSCTDNGTFNLSRGQTPLTEG [RETREG3] | 5.2 ± 0.25 | 5.32 ± 0.1 | – | –
EVDSGRQIEYEYKLAQALHEMREQ [LMNB1] | 4.51 ± 0.23 | 4.43 ± 0.23 | – | –
VLPKPKVISCLEQGEEPWVQVSPE [ZNF75A] | 4.21 ± 0.23 | 4.07 ± 0.3 | – | –
IVEVLGIPPAAMLDQAPKARKYFE [DYRK1B] | 2.65 ± 0.42 | 2.93 ± 0.14 | – | –
VGVATADAPLHSVGYTTLVGNNHE [SPSB1] | 4.25 ± 0.45 | 4.16 ± 0.19 | – | –
LENTYRDFWLMVWEQKVLVIVMTT [PTPN9] | 2.36 ± 0.7 | 2.59 ± 0.6 | – | –
RHCPELAEMSRVSIRILDELVLPF [HNF4A] | 2.12 ± 0.13 | 2.31 ± 0.38 | – | –
TVANDVMLRTGLGVIRMWADEGSR [NETO1] | 2.61 ± 0.11 | 2.77 ± 0.21 | – | –
GLSQGLVDREKGLSAEPGWQAKRE [CHGA] | 4.92 ± 0.29 | 4.84 ± 0.4 | – | –
EGNALQGPILQKDYVQLENQWETP [ZNF449] | 4.86 ± 0.13 | 4.68 ± 0.23 | – | –
INRWRFLLQCLEDLDANLRKLNSR [CRY1] | 2.06 ± 0.16 | 2.45 ± 0.15 | – | –
GFWRIDPQYAERLLSGAFKKRRLP [FOXJ1] | 2.56 ± 0.12 | 2.4 ± 0.37 | – | –
AGILSNLTCNNYKNKMMVCQVGGI [CTNNB1] | 2.17 ± 0.3 | 2.11 ± 0.37 | – | –
KDRETSKVIYDFIEKTGGVEAVKN [WASL] | 3.28 ± 0.068 | 3.37 ± 0.078 | – | –
QICGTHRQTKKMFCDMDKSLLCLL [TRIM43] | 2.77 ± 1 | 2.18 ± 0.36 | – | –
DENEDVNFDHFEILRAIGKGSFGK [STK32A] | 4.22 ± 0.18 | 4.14 ± 0.17 | – | –
KIWLVVPSLLELAWEKLLAAFPNL [KLHDC10] | 2.84 ± 0.16 | 2.73 ± 0.11 | – | –
SRNAADKERAAGGGAGSSEDDAQS [GOLPH3] | 5.63 ± 0.24 | 5.6 ± 0.15 | – | –
LAAAVVQEHSNSVGGQDTGATWRT [C18orf25] | 4.22 ± 0.23 | 4.18 ± 0.21 | – | –
GFSLEDPQTHSNRIYRMIKLGLGI [HSP90AB1] | 2.06 ± 0.42 | 2.29 ± 0.3 | – | –
